Here are results for five variants from IntAct's records for PubMed 22615398.

The chains are these.
B1: Geminin (Homo sapiens), O75496 (parent)
chain: MNPSMKQKQEEIKENIKNSSVPRRTLKMIQPSASGSLVGRENELSAGLSKRKHRNDHLTSTTSSPGVIVPESSENKNLGGVTQESFDLMIKENPSSQYWKEVAEKRRKALYEALKENEKLHKEIEQKDNEIARLKKENKELAEVAEHVQYMAELIERLNGEPLDNFESLDNQEFDSEEETVEDSLVEDSEIGTCAEGTVSSSTDAKPCI

The variants in this test derive from B1. Conditions: with hxc9_human HOXC9, P31274.
Sequence of hxc9_human HOXC9, P31274 (P31274 whole entry): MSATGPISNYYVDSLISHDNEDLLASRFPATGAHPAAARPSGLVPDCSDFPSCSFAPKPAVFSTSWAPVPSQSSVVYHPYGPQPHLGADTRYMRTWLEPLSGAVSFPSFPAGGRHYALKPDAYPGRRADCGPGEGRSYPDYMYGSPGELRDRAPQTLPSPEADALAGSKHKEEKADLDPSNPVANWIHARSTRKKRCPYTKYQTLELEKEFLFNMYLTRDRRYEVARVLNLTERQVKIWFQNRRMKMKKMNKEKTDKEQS
In the case of MNPSMKQKQEEIKENIKNSSVPRRTLKMIQPSASGSLVGRENELSAGLSKRKHRNDHLTSTTSSPGVIVPESSENKNLGGVTQESFDLMIKENPSSQYWKEVAEKRRKALYEALKENEKLHKEIEQKDNEIARLKKENKELAEVAEHVQYMAELIERLNGEPLDNFESLDNQEFDSEEETAQNSLVEDSEIGTCAEGTVSSSTDAKPCI [V181A;E182Q;D183N], the “effect of a mutation on the interaction” value was “decreasing interaction strength”. For the variant MNPSMKQKQEEIKENIKNSSVPRRTLKMIQPSASGSLVGRENELSAGLSKRKHRNDHLTSTTSSPGVIVPESSENKNLGGVTQESFDLMIKENPSSQYWKEVAEKRRKALYEALKENEKLHKEIEQKDNEIARLKKENKELAEVAEHVQYMAELIERLNGEPLDNFESLDNQEFDSQQQTVQDSLVQNSEIGTCAEGTVSSSTDAKPCI [E177Q;E178Q;E179Q;E182Q;E187Q;D188N], the “effect of a mutation on the interaction” value is “decreasing interaction strength”. In the case of MNPSMKQKQEEIKENIKNSSVPRRTLKMIQPSASGSLVGRENELSAGLSKRKHRNDHLTSTTSSPGVIVPESSENKNLGGVTQESFDLMIKENPSSQYWKEVAEKRRKALYEALKENEKLHKEIEQKDNEIARLKKENKELAEVAEHVQYMAELIERLNGEPLDNFESLDNQEFDSEEETVEDSLAQNSEIGTCAEGTVSSSTDAKPCI [V186A;E187Q;D188N] it was “decreasing interaction strength”.

Take MNPSMKQKQEEIKENIKNSSVPRRTLKMIQPSASGSLVGRENELSAGLSKRKHRNDHLTSTTSSPGVIVPESSENKNLGGVTQESFDLMIKENPSSQYWKEVAEKRRKALYEALKENEKLHKEIEQKDNEIARLKKENKELAEVAEHVQYMAELIERLNGEPLDNFESLDNQEFDSQQQTVEDSLVEDSEIGTCAEGTVSSSTDAKPCI [E177Q;E178Q;E179Q]: the “effect of a mutation on the interaction” value is recorded as “decreasing interaction strength”. Turning to MNPSMKQKQEEIKENIKNSSVPRRTLKMIQPSASGSLVGRENELSAGLSKRKHRNDHLTSTTSSPGVIVPESSENKNLGGVTQESFDLMIKENPSSQYWKEVAEKRRKALYEALKENEKLHKEIEQKDNEIARLKKENKELAEVAEHVQYMAELIERLNGEPLDNFESLDNQEFDSEEETVEDELVEDSEIGTCAEGTVSSSTDAKPCI [S184E], the “effect of a mutation on the interaction” value is “increasing interaction strength”.
